Measurements as given in patent publication CN117136070A (CELLDEX THERAPEUTICS INC, dated 2023).

What was measured:
重组人FcrRIIb = molecular target: T1, 重组人FcrRIIb (human, UniProt P31994 43-217, limits assumed); assay: BLI, His-tagged Fc receptor captured on anti-penta-His biosensor, antibody in solution
T1 construct: Recombinant, histidine-tagged, captured on anti-penta-His biosensor; also called FcγRIIb; not shown: histidine tag
T1 sequence (looked up): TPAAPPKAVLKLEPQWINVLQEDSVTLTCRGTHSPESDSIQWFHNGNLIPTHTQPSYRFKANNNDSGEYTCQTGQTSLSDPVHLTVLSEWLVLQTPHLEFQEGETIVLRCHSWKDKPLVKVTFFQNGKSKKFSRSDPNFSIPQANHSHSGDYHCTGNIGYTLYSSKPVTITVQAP

重组人FcrRIIa = molecular target: T2, 重组人FcrRIIa (human, UniProt P12318 36-218, limits assumed); assay: as above
T2 construct: Recombinant, histidine-tagged, captured on anti-penta-His biosensor; also called FcγRIIa; not shown: histidine tag
T2 sequence (looked up): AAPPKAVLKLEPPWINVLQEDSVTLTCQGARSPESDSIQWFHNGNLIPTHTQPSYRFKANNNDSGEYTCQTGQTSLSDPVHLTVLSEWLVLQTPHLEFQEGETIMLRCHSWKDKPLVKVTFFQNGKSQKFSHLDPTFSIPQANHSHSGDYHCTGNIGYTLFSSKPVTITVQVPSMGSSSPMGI

重组人FcrRI = molecular target: T3, 重组人FcrRI (human, UniProt P12314 16-288, limits assumed); assay: as above
T3 construct: Recombinant, histidine-tagged, captured on anti-penta-His biosensor; also called FcγRI; FcgRI; not shown: histidine tag

重组人FcrRIIIa = molecular target: T4, 重组人FcrRIIIa (human, UniProt P08637 17-208); assay: as above
T4 construct: Recombinant, histidine-tagged, captured on anti-penta-His biosensor; also called FcγRIIIa; not shown: histidine tag

重组人FcrRIIIb = molecular target: T5, 重组人FcrRIIIb (human, UniProt O75015 17-200); assay: as above
T5 construct: Recombinant, histidine-tagged, captured on anti-penta-His biosensor; also called FcγRIIIb; not shown: histidine tag

KIT (野生型KIT, M-07e细胞) = KIT (野生型KIT, M-07e细胞) (UniProt P10721 26-976, limits assumed); assay: cell-based or functional assay
Chain of KIT (野生型KIT, M-07e细胞) (P10721 26-976 limits assumed): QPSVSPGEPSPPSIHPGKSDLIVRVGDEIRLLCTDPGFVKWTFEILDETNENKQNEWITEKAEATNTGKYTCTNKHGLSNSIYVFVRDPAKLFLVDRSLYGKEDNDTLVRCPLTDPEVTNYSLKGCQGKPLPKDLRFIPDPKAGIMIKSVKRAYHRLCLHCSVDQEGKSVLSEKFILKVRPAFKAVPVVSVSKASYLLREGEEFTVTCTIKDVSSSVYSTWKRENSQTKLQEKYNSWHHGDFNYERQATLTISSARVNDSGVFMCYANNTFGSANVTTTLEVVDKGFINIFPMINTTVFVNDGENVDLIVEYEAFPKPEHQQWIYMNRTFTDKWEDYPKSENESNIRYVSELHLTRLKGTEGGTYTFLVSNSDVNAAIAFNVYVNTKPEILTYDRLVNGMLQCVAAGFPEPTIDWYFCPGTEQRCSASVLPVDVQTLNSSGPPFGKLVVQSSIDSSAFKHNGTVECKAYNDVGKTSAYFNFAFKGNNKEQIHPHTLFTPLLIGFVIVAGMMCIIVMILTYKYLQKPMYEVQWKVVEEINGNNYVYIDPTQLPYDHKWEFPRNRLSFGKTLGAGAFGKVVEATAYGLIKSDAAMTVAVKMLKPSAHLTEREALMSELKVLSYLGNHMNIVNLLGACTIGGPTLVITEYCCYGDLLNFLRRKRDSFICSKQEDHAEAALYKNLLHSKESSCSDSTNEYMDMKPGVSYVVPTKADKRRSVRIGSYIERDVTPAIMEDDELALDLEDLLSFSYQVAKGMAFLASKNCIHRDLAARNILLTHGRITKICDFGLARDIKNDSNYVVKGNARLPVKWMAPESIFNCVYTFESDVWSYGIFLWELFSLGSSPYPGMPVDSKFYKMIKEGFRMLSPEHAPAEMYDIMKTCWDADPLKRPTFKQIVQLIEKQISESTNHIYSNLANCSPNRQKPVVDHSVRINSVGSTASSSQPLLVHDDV

T5 sequence (O75015 17-200 limits assumed): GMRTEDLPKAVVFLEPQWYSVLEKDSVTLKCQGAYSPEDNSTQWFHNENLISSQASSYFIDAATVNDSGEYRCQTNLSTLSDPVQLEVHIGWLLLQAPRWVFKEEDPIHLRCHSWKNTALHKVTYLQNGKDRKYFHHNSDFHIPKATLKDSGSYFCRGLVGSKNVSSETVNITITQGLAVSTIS
T4 sequence (P08637 17-208 limits assumed): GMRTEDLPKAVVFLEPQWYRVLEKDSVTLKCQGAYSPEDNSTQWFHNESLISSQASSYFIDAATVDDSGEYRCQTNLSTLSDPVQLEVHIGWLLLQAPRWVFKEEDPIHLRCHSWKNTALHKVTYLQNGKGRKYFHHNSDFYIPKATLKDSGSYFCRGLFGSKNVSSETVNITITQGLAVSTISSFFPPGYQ
T3 sequence (P12314 16-288 limits assumed): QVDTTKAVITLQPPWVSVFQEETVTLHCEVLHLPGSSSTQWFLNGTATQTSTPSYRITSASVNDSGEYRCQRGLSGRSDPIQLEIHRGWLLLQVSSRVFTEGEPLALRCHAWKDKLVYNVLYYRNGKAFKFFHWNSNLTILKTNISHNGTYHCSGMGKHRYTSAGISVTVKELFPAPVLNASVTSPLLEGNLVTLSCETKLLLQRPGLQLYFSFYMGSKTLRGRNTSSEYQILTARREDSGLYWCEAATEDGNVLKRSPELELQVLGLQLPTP

B1: mAbc (antibody)
VH: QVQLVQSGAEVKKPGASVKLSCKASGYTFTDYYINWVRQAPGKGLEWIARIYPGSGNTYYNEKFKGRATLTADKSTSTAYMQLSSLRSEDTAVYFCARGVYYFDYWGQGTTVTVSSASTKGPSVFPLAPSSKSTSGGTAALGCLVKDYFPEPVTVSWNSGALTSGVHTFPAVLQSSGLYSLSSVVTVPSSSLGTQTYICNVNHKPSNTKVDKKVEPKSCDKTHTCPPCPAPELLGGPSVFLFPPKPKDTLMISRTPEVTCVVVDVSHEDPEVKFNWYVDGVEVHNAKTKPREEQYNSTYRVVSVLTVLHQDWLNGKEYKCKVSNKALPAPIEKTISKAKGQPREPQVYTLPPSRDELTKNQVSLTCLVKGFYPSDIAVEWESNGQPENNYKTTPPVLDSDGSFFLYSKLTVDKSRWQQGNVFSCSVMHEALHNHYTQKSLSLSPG
VL: DIVMTQSPSSLSASVGDRVTITCKASQNVRTNVAWYQQKPGKAPKALIYSASYRYSGVPDRFTGSGSGTDFTLTISSLQPEDFADYFCQQYNSYPRTFGGGTKVEIKRTVAAPSVFIFPPSDEQLKSGTASVVCLLNNFYPREAKVQWKVDNALQSGNSQESVTEQDSKDSTYSLSSTLTLSKADYEKHKVYACEVTHQGLSSPVTKSFNRGEC
notes: also called 具有相同可变区序列但是未突变的(野生型)人IgG1序列的相应抗体; 具有野生型(未突变)IgG1 Fc域的相应抗体; copies: 2 + 2
- binding result (重组人FcrRIIb): no binding

B2: mAb1 (antibody, human IgG1, kappa)
heavy: QVQLVQSGAEVKKPGASVKLSCKASGYTFTDYYINWVRQAPGKGLEWIARIYPGSGNTYYNEKFKGRATLTADKSTSTAYMQLSSLRSEDTAVYFCARGVYYFDYWGQGTTVTVSSASTKGPSVFPLAPSSKSTSGGTAALGCLVKDYFPEPVTVSWNSGALTSGVHTFPAVLQSSGLYSLSSVVTVPSSSLGTQTYICNVNHKPSNTKVDKKVEPKSCDKTHTCPPCPAPEAQGGPSVFLFPPKPKDTLYITREPEVTCVVVDVSHEDPEVKFNWYVDGVEVHNAKTKPREEQYNSTYRVVSVLTVLHQDWLNGKEYKCQVSNKALPAPIEKTISKAKGQPREPQVYTLPPSRDELTKNQVSLTCLVKGFYPSDIAVEWESNGQPENNYKTTPPVLDSDGSFFLYSKLTVDKSRWQQGNVFSCSVMHEALHNHYTQKSLSLSPG
light: DIVMTQSPSSLSASVGDRVTITCKASQNVRTNVAWYQQKPGKAPKALIYSASYRYSGVPDRFTGSGSGTDFTLTISSLQPEDFADYFCQQYNSYPRTFGGGTKVEIKRTVAAPSVFIFPPSDEQLKSGTASVVCLLNNFYPREAKVQWKVDNALQSGNSQESVTEQDSKDSTYSLSSTLTLSKADYEKHKVYACEVTHQGLSSPVTKSFNRGEC
notes: also called 抗-KIT抗体mAb1; Fc突变的抗-KIT抗体; copies: 2 + 2
- binding result (重组人FcrRIIb): no binding (tested: 500nM)
- binding result (重组人FcrRIIa): no binding (tested: 500nM)
- binding result (重组人FcrRI): no binding (tested: 500nM)
- binding result (重组人FcrRIIIa): no binding (tested: 500nM)
- binding result (重组人FcrRIIIb): no binding (tested: 500nM)
- SCF-依赖性M-07e细胞增殖的抑制, 平均IC50 (KIT (野生型KIT, M-07e细胞)): 1.11 nM
